Measurements taken from US20250026827A1 (Alector, published 2025).

T1: mouse SIRPα D1-Fc (mouse, UniProt P97797 32-150, limits assumed)
T1 construct: domain: D1
T1 sequence (looked up): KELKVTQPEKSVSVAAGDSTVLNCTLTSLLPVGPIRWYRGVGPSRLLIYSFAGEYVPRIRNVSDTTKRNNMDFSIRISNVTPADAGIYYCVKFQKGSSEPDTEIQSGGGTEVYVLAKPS

T2: mouse SIRPα on cells (mouse, UniProt P97797 32-513)
T2 construct: whole, on cells
T2 sequence (looked up): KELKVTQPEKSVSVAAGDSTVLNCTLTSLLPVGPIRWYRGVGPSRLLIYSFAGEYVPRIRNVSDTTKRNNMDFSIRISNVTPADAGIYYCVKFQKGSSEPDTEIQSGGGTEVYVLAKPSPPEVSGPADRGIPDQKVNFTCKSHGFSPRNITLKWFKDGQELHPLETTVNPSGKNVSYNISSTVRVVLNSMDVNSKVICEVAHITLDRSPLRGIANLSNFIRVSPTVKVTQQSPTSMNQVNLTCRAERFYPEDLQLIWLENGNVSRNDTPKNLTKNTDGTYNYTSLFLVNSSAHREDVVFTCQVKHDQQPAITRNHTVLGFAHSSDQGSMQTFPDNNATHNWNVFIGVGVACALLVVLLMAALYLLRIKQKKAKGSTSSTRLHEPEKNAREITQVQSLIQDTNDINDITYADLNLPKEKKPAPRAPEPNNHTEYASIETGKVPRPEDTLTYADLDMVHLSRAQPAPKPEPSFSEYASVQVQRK

T3: mouse SIRPβ1 on CHO cells (mouse)
T3 construct: Whole entry
T3 chain: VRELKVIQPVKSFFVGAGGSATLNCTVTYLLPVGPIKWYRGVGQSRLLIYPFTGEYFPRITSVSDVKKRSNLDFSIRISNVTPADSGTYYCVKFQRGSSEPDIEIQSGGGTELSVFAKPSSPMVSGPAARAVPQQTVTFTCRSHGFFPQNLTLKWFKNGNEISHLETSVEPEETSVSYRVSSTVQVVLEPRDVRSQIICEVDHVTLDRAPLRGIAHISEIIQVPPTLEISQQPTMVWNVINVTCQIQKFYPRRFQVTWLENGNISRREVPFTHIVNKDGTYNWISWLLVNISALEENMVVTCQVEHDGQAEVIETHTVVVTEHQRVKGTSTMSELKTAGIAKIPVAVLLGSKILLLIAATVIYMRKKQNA


How the values were obtained:
[1] = biological target: T4, human SIRPα domain 1 (D1) Fc fusion (human, UniProt P78324 32-149); experiment: Octet
T4 construct: also called human SIRPα D1-Fc; Human SIRPα Fc; not shown: C-terminal human IgG1 Fc

mouse SIRPα D1-Fc = biological target: T1, mouse SIRPα D1-Fc; experiment: Octet
mouse SIRPα on cells [2] = biological target: T2, mouse SIRPα on cells; experiment: flow cytometry;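 for FOB: antibodies tested at 1 µg/ml for 30 min on ice against receptor-expressing cells, detected with a PE-labelled secondary antibody, read as mean fluorescence intensity relative to background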
human SIRPα on cells [3] = biological target: T5, human SIRPα on cells (human, UniProt P78324 31-504); experiment: flow cytometry;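 for FOB: antibodies tested at 1 µg/ml for 30 min on ice against receptor-expressing cells, detected with a PE-labelled secondary antibody, read as mean fluorescence intensity relative to background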
T5 construct: Whole entry

[4] = biological target: T3, mouse SIRPβ1 on CHO cells; experiment: flow cytometry;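 for FOB: antibodies tested at 1 µg/ml for 30 min on ice against receptor-expressing cells, detected with a PE-labelled secondary antibody, read as mean fluorescence intensity relative to background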
[5] = biological target: T6, human SIRPβ1 isoform 1 on cells (human, UniProt O00241 30-398); experiment: flow cytometry;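 note: antibodies tested at 1 µg/ml for 30 min on ice against receptor-expressing cells, detected with a PE-labelled secondary antibody, read as mean fluorescence intensity relative to background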
T6 construct: On CHO cells (low level), on BWZ/BW5147.G.1.4 cells (reporter cells co-express human DAP12) or on primary human myeloid cells; also called huSIRPβ1; BWZ-huSIRPβ1

mouse SIRPα on cells [6] = biological target: T2, mouse SIRPα on cells; experiment: flow cytometry; remark: listed apart in the source
human SIRPα on cells [7] = biological target: T5, human SIRPα on cells; experiment: flow cytometry; remark: listed apart in the source
[8] = biological target: T3, mouse SIRPβ1 on CHO cells; experiment: flow cytometry

T6 sequence (O00241 30-398): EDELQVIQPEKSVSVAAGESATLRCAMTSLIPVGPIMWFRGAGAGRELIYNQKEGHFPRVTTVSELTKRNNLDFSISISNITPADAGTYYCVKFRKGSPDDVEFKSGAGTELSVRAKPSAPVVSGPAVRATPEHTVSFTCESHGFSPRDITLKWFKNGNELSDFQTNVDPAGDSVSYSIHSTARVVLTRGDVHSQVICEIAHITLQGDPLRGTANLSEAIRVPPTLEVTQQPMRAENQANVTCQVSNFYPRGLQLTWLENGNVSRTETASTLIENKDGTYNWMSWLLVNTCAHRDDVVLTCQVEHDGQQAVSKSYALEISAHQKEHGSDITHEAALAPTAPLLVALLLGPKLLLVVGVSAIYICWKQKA

Row | binding result [1] | binding result (mouse SIRPα D1-Fc) | binding result (mouse SIRPα on cells [2]) | binding result (human SIRPα on cells [3]) | binding result [4] | FOB [5] [fold over background] | FOB (mouse SIRPα on cells [6]) [fold over background] | FOB (human SIRPα on cells [7]) [fold over background] | FOB [8] [fold over background] | Binder
1 | no binding (tested: 100 nM) | no binding (tested: 100 nM) | no binding (tested: 1 ug/ml) | no binding (tested: 1 ug/ml) | no binding (tested: 1 ug/ml) | 3.9 | 1.1 | 2.4 | 1.3 | SB-27 (antibody, V domains shown, IgG) VH: QVQLVQSGAEVKKPGSSVKVSCKASGGTFSSYAISWVRQAPGQGLEWMGGIIPIFGTANYAQKFQGRVTITADESTSTAYMELSSLRSEDTAVYYCARQDLGSSHWHFDLWGRGTLVTVSS VL: not shown
2 | no binding (tested: 100 nM) | no binding (tested: 100 nM) | no binding (tested: 1 ug/ml) | no binding (tested: 1 ug/ml) | no binding (tested: 1 ug/ml) | 1.4 | 0.9 | 1.9 | 1.4 | SB-22 (antibody, V domains shown, IgG) VH: EVQLVESGGGLVQPGGSLRLSCAASGFTVSSNYMSWVRQAPGKGLEWVSVIYSDGSTYYADSVKGRFTISRDNSKNTLYLQMNSLRAEDTAVYYCARPTRYGYDRLGMDVWGQGTTVTVSS VL: DIQMTQSPSSVSASVGDRVTITCRASQGISSWLAWYQQKPGKAPKLLIYAASNLQSGVPSRFSGSGSGTDFTLTISSLQPEDFATYYCQQGNSYPITFGGGTKVEIK
3 | no binding (tested: 100 nM) | no binding (tested: 100 nM) | no binding (tested: 1 ug/ml) | no binding (tested: 1 ug/ml) | no binding (tested: 1 ug/ml) | 2.4 | 1.4 | 1.9 | 1.5 | SB-23 (antibody, V domains shown, IgG) VH: QVQLVQSGAEVKKPGSSVKVSCKASGGTFSSYAISWVRQAPGQGLEWMGGIAPIFGTANYAQKFQGRVTITADESTSTAYMELSSLRSEDTAVYYCARTTYRDYYMDVWGKGTTVTVSS VL: DIQMTQSPSSLSASVGDRVTITCRASQSISSYLNWYQQKPGKAPKLLIYAASSLQSGVPSRFSGSGSGTDFTLTISSLQPEDFATYYCQQAYPYPLTFGGGTKVEIK
4 | no binding (tested: 100 nM) | no binding (tested: 100 nM) | no binding (tested: 1 ug/ml) | no binding (tested: 1 ug/ml) | no binding (tested: 1 ug/ml) | 2.1 | 1.3 | 2.5 | 1.2 | SB-25 (antibody, V domains shown, IgG) VH: QVQLVQSGAEVKKPGSSVKVSCKASGGTFSSLAISWVRQAPGQGLEWMGGIIPIFGTANYAQKFQGRVTITADESTSTAYMELSSLRSEDTAVYYCARSGGDYSGYDYASGMDVWGQGTTVTVSS VL: DIQMTQSPSSVSASVGDRVTITCRASQGISSWLAWYQQKPGKAPKLLIYAASSLQSGVPSRFSGSGSGTDFTLTISSLQPEDFATYYCQQVNSFPWTFGGGTKVEIK
5 | no binding (tested: 100 nM) | no binding (tested: 100 nM) | no binding (tested: 1 ug/ml) | no binding (tested: 1 ug/ml) | no binding (tested: 1 ug/ml) | 3.7 | 1 | 2 | 1.5 | SB-7 (antibody, V domains shown, IgG) VH: QVQLVQSGAEVKKPGSSVKVSCKASGGTFSSYAISWVRQAPGQGLEWMGGIIPIFGTASYAQKFQGRVTITADESTSTAYMELSSLRSEDTAVYYCARETRQDSAHYYGMDVWGQGTTVTVSS VL: not shown
6 | no binding (tested: 100 nM) | no binding (tested: 100 nM) | no binding (tested: 1 ug/ml) | no binding (tested: 1 ug/ml) | no binding (tested: 1 ug/ml) | 2.6 | 1.2 | 2.2 | 1.3 | SB-20 (antibody, V domains shown, IgG) VH: QVQLVQSGAEVKKPGSSVKVSCKASGGTFSSYAISWVRQAPGQGLEWMGSIIPIFGTANYAQKFQGRVTITADESTSTAYMELSSLRSEDTAVYYCARDGREYGGHYYGMDVWGQGTTVTVSS VL: not shown
7 | no binding (tested: 100 nM) | no binding (tested: 100 nM) | no binding (tested: 1 ug/ml) | no binding (tested: 1 ug/ml) | no binding (tested: 1 ug/ml) | 2.8 | 0.9 | 2.4 | 1.2 | SB-18 (antibody, V domains shown, IgG) VH: QVQLVQSGAEVKKPGSSVKVSCKASGGTFSSYAISWVRQAPGQGLEWMGGIIPIFGTANYAQKFQGRVTITADESTSTAYMELSSLRSEDTAVYYCARAKPRGDYGMDVWGQGTTVTVSS VL: not shown
8 |  | no binding (tested: 100 nM) | no binding (tested: 1 ug/ml) |  | no binding (tested: 1 ug/ml) | 1.7 | 1.2 | 2.1 | 1.1 | SB-36 (antibody, V domains shown, IgG) VH: QVQLVQSGAEVKKPGASVKVSCKASGYTFTSYYMHWVRQAPGQGLEWMGIINPSGGSTSYAQKFQGRVTMTRDTSTSTVYMELSSLRSEDTAVYYCAREGPEQLWYLDYWGQGTLVTVSS VL: DIQMTQSPSSVSASVGDRVTITCRASQGISSWLAWYQQKPGKAPKLLIYAASSLQSGVPSRFSGSGSGTDFTLTISSLQPEDFATYYCQQAFSHRTFGGGTKVEIK
9 | no binding (tested: 100 nM) | no binding (tested: 100 nM) | no binding (tested: 1 ug/ml) | no binding (tested: 1 ug/ml) | no binding (tested: 1 ug/ml) | 2 | 1.4 | 2 | 1.5 | SB-16 (antibody, V domains shown, IgG) VH: QVQLVQSGAEVKKPGSSVKVSCKASGGTFSSYAISWVRQAPGQGLEWMGSIIPIFGTANYAQKFQGRVTITADESTSTAYMELSSLRSEDTAVYYCARANYYDSSGYSGLDLWGRGTLVTVSS VL: not shown
10 | no binding (tested: 100 nM) | no binding (tested: 100 nM) | no binding (tested: 1 ug/ml) | no binding (tested: 1 ug/ml) | no binding (tested: 1 ug/ml) | 3.7 | 1.1 | 2.5 | 1.3 | SB-24 (antibody, V domains shown, IgG) VH: QVQLQESGPGLVKPSETLSLTCAVSGYSISSGYYWAWIRQPPGKGLEWIGSIYHSGSTYYNPSLKSRVTISVDTSKNQFSLKLSSVTAADTAVYYCARDRSRGYPVYGMDVWGQGTTVTVSS VL: EIVMTQSPATLSVSPGERATLSCRASQSVSSNLAWYQQKPGQAPRLLIYGASTRATGIPARFSGSGSGTEFTLTISSLQSEDFAVYYCQQLNIHPWTFGGGTKVEIK
